What all share (experiment): Octet BLI; Fab 200 nM
On the technique in general: Biolayer interferometry detects binding as a change in optical thickness at a sensor tip.

Test [1] has as its target T1, extracellular domain of human BCMA (human, UniProt Q02223 1-54).
T1 construct: amine-linked to Octet AR2G tips; also called hsBCMA; BCMA (human)
T1 sequence: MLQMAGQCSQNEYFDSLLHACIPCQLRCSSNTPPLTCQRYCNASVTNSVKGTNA

In test [2] the target is T2, extracellular domain of rhesus monkey BCMA (rhesus monkey, UniProt F7FFA0 1-53).
T2 construct: extracellular domain; also called RhBCMA
T2 sequence (F7FFA0 entry or part of it): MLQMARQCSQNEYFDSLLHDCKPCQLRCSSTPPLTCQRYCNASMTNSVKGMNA

The target in test [3] is T1, extracellular domain of human BCMA. The source holds these as a separate data set.
The target of test [4] is T2, extracellular domain of rhesus monkey …. The source holds these as a separate data set.

The values below come from patent publication US20240327535A1 (EISAI R AND D MANAGEMENT, published 2024).

What is called Kd is a measure of binding affinity in units of concentration.

Where two headings read alike, the source gives them in different places.

B1: AB200-R1a-Fab_VH1 (Fab, V domains shown)
VH: QVQLVQSGAEVKKPGSSVKVSCKASGGTFSNYWMHWVRQAPGQGLEWMGATYRGHSETYYNEKFKGRVTITADKSTSTAYMELSSLRSEDTAVYYCARGAIYHGYDVLDDWGQGTLVTVSS
VL: DIQMTQSPSSLSASVGDRVTITCSATQDISNYLNWYQQKPGKAPKLLIYFTSNLQSGVPSRFSGSGSGTDFTLTISSLQPEDFATYYCQQYRKLPWTFGQGTKLEIKR
Turning to B1, the Kd in test [1] amounted to 21 nM; in test [2], 32.2 nM.

B2: AB200-R1a-Fab_VH51 (Fab, V domains shown)
VH: QVQLVQSGAEVKKPGSSVKVSCKASGGTFSNYWMHWVRQAPGQGLEWMGATYRGHSDTNYNQKFKGRVTITADKSTSTAYMELSSLRSEDTAVYYCARGTIYHGFDVLDNWGQGTLVTVSS
VL: DIQMTQSPSSLSASVGDRVTITCSATQDISNYLNWYQQKPGKAPKLLIYFTSNLQSGVPSRFSGSGSGTDFTLTISSLQPEDFATYYCQQYRKLPWTFGQGTKLEIKR
Consider B2, for which the Kd in test [1] turned out to be 18.9 nM.

B3: AB200-R1H32-R2Vk44 (Fab, V domains shown)
VH: QVQLVQSGAEVKKPGSSVKVSCKASGGTFSNYWMHWVRQAPGQGLEWMGATYRSHSDTYYNQKFKSRVTITADKSTSTAYMELSSLRSEDTAVYYCARGAIYHGYDVIDNWGQGTLVTVSS
VL: DIQMTQSPSSLSASVGDRVTITCRASQSISSYINWYQQKPGKAPKLLIYATSNLQIGVPSRFSGSGSGTDFTLTISSLQPEDFATYYCQQYRRLPWSFGQGTKLEIKR
Consider B3, for which the figures for the Kd in test [3] and in test [4] were 0.71 nM and 3.32 nM, respectively.

B4: AB200-R1H32-R2Vk34 (Fab, V domains shown)
VH: QVQLVQSGAEVKKPGSSVKVSCKASGGTFSNYWMHWVRQAPGQGLEWMGATYRSHSDTYYNQKFKSRVTITADKSTSTAYMELSSLRSEDTAVYYCARGAIYHGYDVIDNWGQGTLVTVSS
VL: DIQMTQSPSSLSASVGDRVTITCRASQSISSYINWYQQKPGKAPKLLIYATSNLQSGVPSRFSGSGSGTDFTLTISSLQPEDFATYYCQQYRRLPWSFGQGTKLEIKR
In the case of B4, the Kd in test [3] came to 1.12 nM; in test [4] it was 4.53 nM.

B5: AB200-R1H32-R2Vk26 (Fab, V domains shown)
VH: QVQLVQSGAEVKKPGSSVKVSCKASGGTFSNYWMHWVRQAPGQGLEWMGATYRSHSDTYYNQKFKSRVTITADKSTSTAYMELSSLRSEDTAVYYCARGAIYHGYDVIDNWGQGTLVTVSS
VL: DIQMTQSPSSLSASVGDRVTITCRASQSISSYLNWYQQKPGKAPKLLIYATSNIQSGVPSRFSGSGSGTDFTLTISSLQPEDFATYYCQQFRRLPWTFGQGTKLEIKR
For the molecule B5, the figures for the dissociation constant (Kd) in test [3] and in test [4] were 1.06 nM and 3.85 nM, respectively.

B6: AB200-R1H32-R2Vk32 (Fab, V domains shown)
VH: QVQLVQSGAEVKKPGSSVKVSCKASGGTFSNYWMHWVRQAPGQGLEWMGATYRSHSDTYYNQKFKSRVTITADKSTSTAYMELSSLRSEDTAVYYCARGAIYHGYDVIDNWGQGTLVTVSS
VL: DIQMTQSPSSLSASVGDRVTITCRASQSISSYLNWYQQKPGKAPKLLIYATSNLQIGVPSRFSGSGSGTDFTLTISSLQPEDFATYYCQQYRKIPWSFGQGTKLEIKR
On to B6, for which the dissociation constant (Kd) is 0.873 nM in test [3] and 4.83 nM in test [4].

B7: AB200-R1H32-R2Vk40 (Fab, V domains shown)
VH: QVQLVQSGAEVKKPGSSVKVSCKASGGTFSNYWMHWVRQAPGQGLEWMGATYRSHSDTYYNQKFKSRVTITADKSTSTAYMELSSLRSEDTAVYYCARGAIYHGYDVIDNWGQGTLVTVSS
VL: DIQMTQSPSSLSASVGDRVTITCRASQSISSYINWYQQKPGKAPKLLIYATSNIQSGVPSRFSGSGSGTDFTLTISSLQPEDFATYYCQQYRRIPWTFGQGTKLEIKR
On to B7, for which the values for the dissociation constant Kd in test [3] and in test [4] were 1.03 nM and 5.08 nM, respectively.

B8: AB200-R1H32-R2Vk43 (Fab, V domains shown)
VH: QVQLVQSGAEVKKPGSSVKVSCKASGGTFSNYWMHWVRQAPGQGLEWMGATYRSHSDTYYNQKFKSRVTITADKSTSTAYMELSSLRSEDTAVYYCARGAIYHGYDVIDNWGQGTLVTVSS
VL: DIQMTQSPSSLSASVGDRVTITCRASQSISSYINWYQQKPGKAPKLLIYATSNIQSGVPSRFSGSGSGTDFTLTISSLQPEDFATYYCQQFRKIPWTFGQGTKLEIKR
As to B8, the results for the equilibrium dissociation constant (Kd) in test [3] and in test [4] were 1.29 nM and 9.2 nM, respectively.

B9: AB200-R1H32-R2Vk38 (Fab, V domains shown)
VH: QVQLVQSGAEVKKPGSSVKVSCKASGGTFSNYWMHWVRQAPGQGLEWMGATYRSHSDTYYNQKFKSRVTITADKSTSTAYMELSSLRSEDTAVYYCARGAIYHGYDVIDNWGQGTLVTVSS
VL: DIQMTQSPSSLSASVGDRVTITCRASQSISSYINWYQQKPGKAPKLLIYATSNLQSGVPSRFSGSGSGTDFTLTISSLQPEDFATYYCQQFRKIPWTFGQGTKLEIKR
On to B9, for which the Kd was 1.15 nM in test [3] and 5.35 nM in test [4].

B10: AB200-R1H32-R2Vk33 (Fab, V domains shown)
VH: QVQLVQSGAEVKKPGSSVKVSCKASGGTFSNYWMHWVRQAPGQGLEWMGATYRSHSDTYYNQKFKSRVTITADKSTSTAYMELSSLRSEDTAVYYCARGAIYHGYDVIDNWGQGTLVTVSS
VL: DIQMTQSPSSLSASVGDRVTITCRASQSISSYLNWYQQKPGKAPKLLIYATSNLQIGVPSRFSGSGSGTDFTLTISSLQPEDFATYYCQQFRKIPWTFGQGTKLEIKR
For B10, the values for the Kd in test [3] and in test [4] were 0.996 nM and 4.29 nM, respectively.

B11: AB200-R1a-Fab_VH41 (Fab, V domains shown)
VH: QVQLVQSGAEVKKPGSSVKVSCKASGGTFSNYWMHWVRQAPGQGLEWMGATYRGHSDTYYNEKFKGRVTITADKSTSTAYMELSSLRSEDTAVYYCARGAIYHGYDILNNWGQGTLVTVSS
VL: DIQMTQSPSSLSASVGDRVTITCSATQDISNYLNWYQQKPGKAPKLLIYFTSNLQSGVPSRFSGSGSGTDFTLTISSLQPEDFATYYCQQYRKLPWTFGQGTKLEIKR
Consider B11, for which the dissociation constant Kd in test [1] was determined as 14.5 nM.

B12: AB200-R1H32-R2Vk37 (Fab, V domains shown)
VH: QVQLVQSGAEVKKPGSSVKVSCKASGGTFSNYWMHWVRQAPGQGLEWMGATYRSHSDTYYNQKFKSRVTITADKSTSTAYMELSSLRSEDTAVYYCARGAIYHGYDVIDNWGQGTLVTVSS
VL: DIQMTQSPSSLSASVGDRVTITCRASQSISSYINWYQQKPGKAPKLLIYATSNLQSGVPSRFSGSGSGTDFTLTISSLQPEDFATYYCQQYRKIPWSFGQGTKLEIKR
As to B12, the dissociation constant (Kd) turned out to be 0.85 nM in test [3] and 4.41 nM in test [4].

B13: AB200-R1H32-R2Vk29 (Fab, V domains shown)
VH: QVQLVQSGAEVKKPGSSVKVSCKASGGTFSNYWMHWVRQAPGQGLEWMGATYRSHSDTYYNQKFKSRVTITADKSTSTAYMELSSLRSEDTAVYYCARGAIYHGYDVIDNWGQGTLVTVSS
VL: DIQMTQSPSSLSASVGDRVTITCRASQSISSYLNWYQQKPGKAPKLLIYATSNLQIGVPSRFSGSGSGTDFTLTISSLQPEDFATYYCQQYRRLPWSFGQGTKLEIKR
B13: the dissociation constant Kd was found to be 1.14 nM in test [3] and 3.69 nM in test [4].

B14: AB200-R1H32-R2Vk30 (Fab, V domains shown)
VH: QVQLVQSGAEVKKPGSSVKVSCKASGGTFSNYWMHWVRQAPGQGLEWMGATYRSHSDTYYNQKFKSRVTITADKSTSTAYMELSSLRSEDTAVYYCARGAIYHGYDVIDNWGQGTLVTVSS
VL: DIQMTQSPSSLSASVGDRVTITCRASQSISSYLNWYQQKPGKAPKLLIYATSNLQIGVPSRFSGSGSGTDFTLTISSLQPEDFATYYCQQYRRIPWTFGQGTKLEIKR
For the molecule B14, the values for the Kd in test [3] and in test [4] were 0.816 nM and 3.92 nM, respectively.

B15: AB200-R1H32-R2Vk22 (Fab, V domains shown)
VH: QVQLVQSGAEVKKPGSSVKVSCKASGGTFSNYWMHWVRQAPGQGLEWMGATYRSHSDTYYNQKFKSRVTITADKSTSTAYMELSSLRSEDTAVYYCARGAIYHGYDVIDNWGQGTLVTVSS
VL: DIQMTQSPSSLSASVGDRVTITCRASQSISSYLNWYQQKPGKAPKLLIYATSNLQSGVPSRFSGSGSGTDFTLTISSLQPEDFATYYCQQYRKIPWSFGQGTKLEIKR
Regarding B15, the dissociation constant (Kd) in test [3] was found to be 1.06 nM; in test [4], 5.64 nM.

B16: AB200-R1H32-R2Vk25 (Fab, V domains shown)
VH: QVQLVQSGAEVKKPGSSVKVSCKASGGTFSNYWMHWVRQAPGQGLEWMGATYRSHSDTYYNQKFKSRVTITADKSTSTAYMELSSLRSEDTAVYYCARGAIYHGYDVIDNWGQGTLVTVSS
VL: DIQMTQSPSSLSASVGDRVTITCRASQSISSYLNWYQQKPGKAPKLLIYATSNIQSGVPSRFSGSGSGTDFTLTISSLQPEDFATYYCQQYRRIPWTFGQGTKLEIKR
Consider B16, for which the results for the dissociation constant Kd in test [3] and in test [4] were 1.04 nM and 5.62 nM, respectively.

B17: AB200-R1H32-R2Vk23 (Fab, V domains shown)
VH: QVQLVQSGAEVKKPGSSVKVSCKASGGTFSNYWMHWVRQAPGQGLEWMGATYRSHSDTYYNQKFKSRVTITADKSTSTAYMELSSLRSEDTAVYYCARGAIYHGYDVIDNWGQGTLVTVSS
VL: DIQMTQSPSSLSASVGDRVTITCRASQSISSYLNWYQQKPGKAPKLLIYATSNLQSGVPSRFSGSGSGTDFTLTISSLQPEDFATYYCQQFRKIPWTFGQGTKLEIKR
For the molecule B17, the equilibrium dissociation constant (Kd) was determined as 1.13 nM in test [3] and 5.08 nM in test [4].

B18: AB200-R1a-Fab_VH3 (Fab, V domains shown)
VH: QVQLVQSGAEVKKPGSSVKVSCKASGGTFSNYWMSWVRQAPGQGLEWMGATYRGHSQTYYNQKFKGRVTITADKSTSTAYMELSSLRSEDTAVYYCARGAVYHGYDVLDNWGQGTLVTVSS
VL: DIQMTQSPSSLSASVGDRVTITCSATQDISNYLNWYQQKPGKAPKLLIYFTSNLQSGVPSRFSGSGSGTDFTLTISSLQPEDFATYYCQQYRKLPWTFGQGTKLEIKR
Regarding B18, in test [1], the equilibrium dissociation constant (Kd) stood at 53.1 nM.

B19: AB200-R1H32-R2Vk19 (Fab, V domains shown)
VH: QVQLVQSGAEVKKPGSSVKVSCKASGGTFSNYWMHWVRQAPGQGLEWMGATYRSHSDTYYNQKFKSRVTITADKSTSTAYMELSSLRSEDTAVYYCARGAIYHGYDVIDNWGQGTLVTVSS
VL: DIQMTQSPSSLSASVGDRVTITCRASQSISSYLNWYQQKPGKAPKLLIYATSNLQSGVPSRFSGSGSGTDFTLTISSLQPEDFATYYCQQYRRLPWSFGQGTKLEIKR
As for B19, the dissociation constant (Kd) in test [3] was determined as 0.946 nM; in test [4], 4.57 nM.
